Source: patent US20130165539A1
No end group written: not given here. modified Toyopearl AF‑Amino‑650M resin = not defined here

How the values were obtained:
[1] = biological target: Human polyclonal immunoglobulin G (IgG), lyophilized, Equitech-Bio, Inc. (human); experiment: affinity chromatography, yield = IgG eluted / IgG loaded; cycle 2, after phosphoric acid regeneration, before any NaOH wash
[2] = biological target: Human polyclonal immunoglobulin G (IgG), lyophilized, Equitech-Bio, Inc. (human); experiment: affinity chromatography, yield = IgG eluted / IgG loaded; cycle 4, after two 0.1 M NaOH washes
[3] = biological target: Human polyclonal immunoglobulin G (IgG), lyophilized, Equitech-Bio, Inc. (human); experiment: affinity chromatography, IgG 10 mg/mL in cMEM loaded on 0.1 mL column, eluted with 0.2 M acetate pH 4; yield = IgG eluted / IgG loaded (Protein G HPLC); cycle 1, before any NaOH wash
[4] = biological target: Human polyclonal immunoglobulin G (IgG), lyophilized, Equitech-Bio, Inc. (human); experiment: affinity chromatography, yield = IgG eluted / IgG loaded; cycle 5, after three 0.1 M NaOH washes
[5] = biological target: Human polyclonal immunoglobulin G (IgG), lyophilized, Equitech-Bio, Inc. (human); experiment: affinity chromatography, yield = IgG eluted / IgG loaded; cycle 3, after the first 0.1 M NaOH wash (ligand partly leached)
[6] = biological target: Human polyclonal immunoglobulin G (IgG), lyophilized, Equitech-Bio, Inc. (human); experiment: affinity chromatography of IgG from cMEM, yield = IgG eluted / IgG loaded; cycle 1, 0 washes with 1 M NaOH
[7] = biological target: Human polyclonal immunoglobulin G (IgG), lyophilized, Equitech-Bio, Inc. (human); experiment: affinity chromatography of IgG from cMEM, yield = IgG eluted / IgG loaded; cycle 30, 29 washes with 1 M NaOH
[8] = biological target: Human polyclonal immunoglobulin G (IgG), lyophilized, Equitech-Bio, Inc. (human); experiment: affinity chromatography of IgG from cMEM, yield = IgG eluted / IgG loaded; cycle 50, 49 washes with 0.5 M NaOH
[9] = biological target: Human polyclonal immunoglobulin G (IgG), lyophilized, Equitech-Bio, Inc. (human); experiment: affinity chromatography of IgG from cMEM, yield = IgG eluted / IgG loaded; cycle 50, 49 washes with 1 M NaOH
[10] = biological target: Human polyclonal immunoglobulin G (IgG), lyophilized, Equitech-Bio, Inc. (human); experiment: affinity chromatography of IgG from cMEM, yield = IgG eluted / IgG loaded; cycle 25, 24 washes with 0.5 M NaOH
[11] = biological target: Human polyclonal immunoglobulin G (IgG), lyophilized, Equitech-Bio, Inc. (human); experiment: affinity chromatography of IgG from cMEM, yield = IgG eluted / IgG loaded; cycle 50, 49 washes with 0.1 M NaOH
[12] = biological target: Human polyclonal immunoglobulin G (IgG), lyophilized, Equitech-Bio, Inc. (human); experiment: affinity chromatography of IgG from cMEM, yield = IgG eluted / IgG loaded; cycle 100, 99 washes with 0.5 M NaOH
[13] = biological target: Human polyclonal immunoglobulin G (IgG), lyophilized, Equitech-Bio, Inc. (human); experiment: affinity chromatography of IgG from cMEM, yield = IgG eluted / IgG loaded; cycle 100, 99 washes with 0.1 M NaOH
[14] = biological target: Human polyclonal immunoglobulin G (IgG), lyophilized, Equitech-Bio, Inc. (human); experiment: affinity chromatography of IgG from cMEM, yield = IgG eluted / IgG loaded; cycle 75, 74 washes with 0.5 M NaOH
[15] = biological target: Human polyclonal immunoglobulin G (IgG), lyophilized, Equitech-Bio, Inc. (human); experiment: affinity chromatography of IgG from cMEM, yield = IgG eluted / IgG loaded; cycle 10, 9 washes with 1 M NaOH
[16] = biological target: Human polyclonal immunoglobulin G (IgG), lyophilized, Equitech-Bio, Inc. (human); experiment: affinity chromatography of IgG from cMEM, yield = IgG eluted / IgG loaded; cycle 20, 19 washes with 1 M NaOH
[17] = biological target: Human polyclonal immunoglobulin G (IgG), lyophilized, Equitech-Bio, Inc. (human); experiment: affinity chromatography of IgG from cMEM, yield = IgG eluted / IgG loaded; cycle 200, 199 washes with 0.1 M NaOH
[18] = biological target: Human polyclonal immunoglobulin G (IgG), lyophilized, Equitech-Bio, Inc. (human); experiment: affinity chromatography of IgG from cMEM, yield = IgG eluted / IgG loaded; cycle 1, 0 washes with 0.5 M NaOH
[19] = biological target: Human polyclonal immunoglobulin G (IgG), lyophilized, Equitech-Bio, Inc. (human); experiment: affinity chromatography of IgG from cMEM, yield = IgG eluted / IgG loaded; cycle 1, 0 washes with 0.1 M NaOH
[20] = biological target: Human polyclonal immunoglobulin G (IgG), lyophilized, Equitech-Bio, Inc. (human); experiment: affinity chromatography of IgG from cMEM, yield = IgG eluted / IgG loaded; cycle 25, 24 washes with 0.1 M NaOH

Binder	IgG yield [1] [%]	IgG yield [2] [%]	IgG yield [3] [%]	IgG yield [4] [%]	IgG yield [5] [%]	IgG yield [6] [%]	IgG yield [7] [%]	IgG yield [8] [%]	IgG yield [9] [%]	IgG yield [10] [%]	IgG yield [11] [%]	IgG yield [12] [%]	IgG yield [13] [%]	IgG yield [14] [%]	IgG yield [15] [%]	IgG yield [16] [%]	IgG yield [17] [%]	IgG yield [18] [%]	IgG yield [19] [%]	IgG yield [20] [%]
HWRGWV-{Toyopearl AF‑Amino‑650M resin} (also: coupled partly by amide, partly by ester bonds)	85	21	85	21	23	–	–	–	–	–	–	–	–	–	–	–	–	–	–	–
HWRGWVA-{modified Toyopearl AF‑Amino‑650M resin} (reading uncertain) [HWRGWV (SEQ ID NO: 1) synthesized on modified Toyopearl AF-Amino-650M resin (density 0.11 meq/g)]	–	–	–	–	–	88	79	85	76	87	88	80	87	82	84	82	85	89	91	90
